Paper PMC3631511

Tests used:
[1] = target: ΔE22-Aβ_(1-39) (Japanese mutant Aβ); assay: critical concentration
[2] = target: ΔE22-Aβ_(1-39) (Japanese mutant Aβ); assay: fluorescence polarisation

- critical concentration (Cr) [1]: 0.167 µM
- k (first-order rate constant of the increase in anisotropy on aggregation) [2]: 0.08 s⁻¹
Substance: ΔE22-Aβ_(1-39) (Japanese mutant Aβ) (peptide)
